Source: the supplement of paper PMC9876800

Test system: peptide library, one residue held at a place counted from the S/T acceptor
Experiment: relative phosphorylation of the sub-library (ratio to the mean residue at this position); higher = residue favoured
Settings: human
In short: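 In 384-well plates, purified recombinant kinases (human or orthologue constructs) were incubated for 90 min under kinase-specific conditions with 50 μM biotinylated degenerate peptide sub-libraries and 50 μM ATP spiked with γ-32P-ATP. Each sub-library fixed a single residue at one position around a central Ser/Thr. Relative sub-library phosphorylation, measured by phosphorimaging and densitometry of streptavidin membrane spots, is given as a ratio to the mean residue at that position.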

ATM, construct: Full length, sequence (Q13315 whole entry, looked up): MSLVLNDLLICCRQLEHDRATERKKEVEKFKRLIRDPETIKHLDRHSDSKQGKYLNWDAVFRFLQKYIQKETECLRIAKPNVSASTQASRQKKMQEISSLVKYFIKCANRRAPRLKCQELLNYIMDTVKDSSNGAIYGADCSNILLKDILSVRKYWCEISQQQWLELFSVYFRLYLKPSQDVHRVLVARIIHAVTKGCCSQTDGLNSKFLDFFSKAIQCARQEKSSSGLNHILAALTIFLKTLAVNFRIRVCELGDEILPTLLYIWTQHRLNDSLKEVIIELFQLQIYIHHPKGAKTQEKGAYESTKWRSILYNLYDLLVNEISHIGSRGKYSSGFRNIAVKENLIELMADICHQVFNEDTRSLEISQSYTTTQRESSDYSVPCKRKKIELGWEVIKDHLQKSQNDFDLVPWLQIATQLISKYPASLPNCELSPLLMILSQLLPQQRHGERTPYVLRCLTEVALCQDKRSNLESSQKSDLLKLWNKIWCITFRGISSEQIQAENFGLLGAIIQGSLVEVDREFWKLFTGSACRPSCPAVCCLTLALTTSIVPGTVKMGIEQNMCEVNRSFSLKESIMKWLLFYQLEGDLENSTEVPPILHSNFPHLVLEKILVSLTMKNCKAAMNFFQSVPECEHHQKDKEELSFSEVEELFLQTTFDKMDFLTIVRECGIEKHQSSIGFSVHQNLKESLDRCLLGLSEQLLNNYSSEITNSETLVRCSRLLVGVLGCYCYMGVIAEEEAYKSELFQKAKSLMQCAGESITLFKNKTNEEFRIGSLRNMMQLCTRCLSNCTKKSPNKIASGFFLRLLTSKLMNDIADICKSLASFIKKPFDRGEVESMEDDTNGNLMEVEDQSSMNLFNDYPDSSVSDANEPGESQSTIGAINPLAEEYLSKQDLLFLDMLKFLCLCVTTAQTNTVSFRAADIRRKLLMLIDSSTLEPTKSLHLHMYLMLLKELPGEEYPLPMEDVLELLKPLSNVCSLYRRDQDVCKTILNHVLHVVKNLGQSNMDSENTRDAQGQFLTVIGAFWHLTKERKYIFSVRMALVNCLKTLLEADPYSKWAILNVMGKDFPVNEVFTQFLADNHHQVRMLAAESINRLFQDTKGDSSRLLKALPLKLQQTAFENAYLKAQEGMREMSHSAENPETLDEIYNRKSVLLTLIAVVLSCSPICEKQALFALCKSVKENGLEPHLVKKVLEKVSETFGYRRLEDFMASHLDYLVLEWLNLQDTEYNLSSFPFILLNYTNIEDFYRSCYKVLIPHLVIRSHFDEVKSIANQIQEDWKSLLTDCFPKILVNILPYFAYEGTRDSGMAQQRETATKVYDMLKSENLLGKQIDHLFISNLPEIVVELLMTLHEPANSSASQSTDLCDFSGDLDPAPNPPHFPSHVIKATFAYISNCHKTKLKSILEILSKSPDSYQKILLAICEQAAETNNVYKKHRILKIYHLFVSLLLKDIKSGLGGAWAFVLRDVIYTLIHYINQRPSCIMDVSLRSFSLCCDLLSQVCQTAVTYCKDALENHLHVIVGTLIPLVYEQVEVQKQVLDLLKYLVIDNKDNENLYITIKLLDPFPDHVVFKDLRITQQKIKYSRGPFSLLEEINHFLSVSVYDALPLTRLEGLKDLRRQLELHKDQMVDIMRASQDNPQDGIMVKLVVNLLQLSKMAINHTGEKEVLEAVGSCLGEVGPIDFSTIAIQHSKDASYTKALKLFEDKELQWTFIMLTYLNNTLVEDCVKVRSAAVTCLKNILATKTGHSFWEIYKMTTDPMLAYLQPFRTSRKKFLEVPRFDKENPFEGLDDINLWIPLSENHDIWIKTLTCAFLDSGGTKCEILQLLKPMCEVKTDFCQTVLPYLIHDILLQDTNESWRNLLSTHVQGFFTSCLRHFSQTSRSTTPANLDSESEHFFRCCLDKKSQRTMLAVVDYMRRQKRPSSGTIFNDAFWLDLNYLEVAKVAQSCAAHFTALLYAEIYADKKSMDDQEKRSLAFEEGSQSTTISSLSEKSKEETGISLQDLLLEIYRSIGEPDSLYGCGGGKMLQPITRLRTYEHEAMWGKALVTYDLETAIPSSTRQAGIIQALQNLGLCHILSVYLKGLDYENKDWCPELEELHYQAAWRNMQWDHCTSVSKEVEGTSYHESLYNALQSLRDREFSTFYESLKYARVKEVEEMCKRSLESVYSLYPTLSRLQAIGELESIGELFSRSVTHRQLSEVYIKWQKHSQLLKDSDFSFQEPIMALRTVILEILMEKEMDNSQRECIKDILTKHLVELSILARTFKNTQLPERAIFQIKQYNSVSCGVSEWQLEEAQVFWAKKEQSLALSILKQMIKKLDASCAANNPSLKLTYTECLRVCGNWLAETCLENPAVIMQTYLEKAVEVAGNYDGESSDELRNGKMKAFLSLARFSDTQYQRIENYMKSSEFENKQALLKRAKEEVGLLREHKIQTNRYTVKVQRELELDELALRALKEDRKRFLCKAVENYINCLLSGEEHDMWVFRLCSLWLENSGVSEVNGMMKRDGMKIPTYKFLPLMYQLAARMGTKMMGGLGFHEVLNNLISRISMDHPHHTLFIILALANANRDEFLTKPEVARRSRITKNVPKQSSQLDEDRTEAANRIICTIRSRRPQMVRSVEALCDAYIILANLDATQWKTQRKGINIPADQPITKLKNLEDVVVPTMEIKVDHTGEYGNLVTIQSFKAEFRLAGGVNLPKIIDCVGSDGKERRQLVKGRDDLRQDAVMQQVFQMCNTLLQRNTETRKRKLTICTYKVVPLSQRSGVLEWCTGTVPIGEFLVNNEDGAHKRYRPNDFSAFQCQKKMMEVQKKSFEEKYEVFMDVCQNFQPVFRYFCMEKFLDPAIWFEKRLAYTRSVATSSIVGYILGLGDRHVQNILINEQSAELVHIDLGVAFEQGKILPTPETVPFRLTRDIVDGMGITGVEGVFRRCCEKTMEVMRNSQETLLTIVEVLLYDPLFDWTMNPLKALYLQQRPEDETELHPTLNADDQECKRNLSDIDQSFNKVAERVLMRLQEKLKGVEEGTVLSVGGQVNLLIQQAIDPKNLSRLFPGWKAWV
MYLK2, construct: Full length, sequence (Q9H1R3 whole entry, looked up): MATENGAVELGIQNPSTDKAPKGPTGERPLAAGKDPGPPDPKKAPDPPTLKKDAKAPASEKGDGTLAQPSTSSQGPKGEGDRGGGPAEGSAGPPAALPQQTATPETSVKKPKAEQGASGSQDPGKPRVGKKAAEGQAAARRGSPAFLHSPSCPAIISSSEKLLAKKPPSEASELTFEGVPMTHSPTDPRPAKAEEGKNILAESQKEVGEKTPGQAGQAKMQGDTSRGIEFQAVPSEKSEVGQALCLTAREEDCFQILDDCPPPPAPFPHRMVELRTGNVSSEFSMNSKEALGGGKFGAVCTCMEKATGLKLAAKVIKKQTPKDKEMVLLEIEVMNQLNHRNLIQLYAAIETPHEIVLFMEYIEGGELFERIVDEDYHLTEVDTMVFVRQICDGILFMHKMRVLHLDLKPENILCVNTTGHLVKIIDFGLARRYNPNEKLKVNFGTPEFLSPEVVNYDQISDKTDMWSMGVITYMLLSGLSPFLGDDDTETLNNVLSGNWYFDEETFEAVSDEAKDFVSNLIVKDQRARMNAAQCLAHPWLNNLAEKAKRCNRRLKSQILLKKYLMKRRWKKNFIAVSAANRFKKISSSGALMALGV

ATM, construct: Full length (from UniProt Q13315)
relative phosphorylation
Settings	at +1	at +2	at +3	at +4	at -1	at -2	at -3	at -4	at -5
A fixed	0.429	0.858	0.748	0.776	0.759	1.18	0.922	0.959	1.1
D fixed	0.42	2.02	1.28	1.27	2.27	1.56	1.26	1.3	1.11
E fixed	0.85	2.16	1.45	1.45	1.62	1.77	1.52	1.5	1.08
F fixed	0.701	0.658	1.5	1.23	1.1	0.868	1.14	1.2	1.4
G fixed	0.361	0.756	0.691	0.922	1.06	0.93	0.848	0.995	0.987
H fixed	0.38	0.918	0.67	0.84	1.09	0.936	0.936	0.912	0.879
I fixed	0.594	0.872	1.03	1.08	0.405	0.685	0.814	0.906	1.06
K fixed	0.384	0.649	0.5	0.499	0.376	0.696	0.681	0.721	0.662
L fixed	0.621	0.77	1.59	1.11	1.56	0.692	0.867	0.96	0.987
M fixed	0.672	0.787	1.26	1.25	1.05	0.85	1.18	0.995	0.971
N fixed	0.748	1.21	0.742	0.791	1.83	1.24	0.842	0.789	0.859
P fixed	0.448	1.1	0.742	0.779	0.412	0.906	0.643	0.819	0.784
Q fixed	8.34	1.1	0.989	0.787	0.731	1.28	0.792	0.733	0.617
R fixed	0.648	0.839	0.545	0.577	0.518	1.13	1.66	0.865	0.894
V fixed	0.521	1.01	0.875	0.873	0.387	0.716	0.671	0.818	1.1
W fixed	0.421	0.514	1.31	1.51	0.525	0.736	1.06	1.27	1.26
Y fixed	0.466	0.798	1.08	1.25	1.31	0.823	1.17	1.25	1.25
pThr fixed	0.577	1.47	0.933	1.49	0.748	1.37	1.15	1.21	0.84
pTyr fixed	0.468	1.85	1.26	2.74	3.86	1.68	1.7	1.23	1.05

PIM3, construct: Full length (from UniProt Q86V86)
relative phosphorylation
Settings	at +1	at +2	at +3	at +4	at -1	at -2	at -3	at -4	at -5
A fixed	1.07	0.944	0.735	0.954	0.952	0.672	0.676	0.984	1.16
D fixed	0.918	0.986	1.47	1.17	0.769	0.637	0.718	1.07	0.989
E fixed	1.44	0.858	1.26	1.11	0.996	0.621	0.674	1.14	0.697
F fixed	0.469	0.684	0.673	0.752	0.608	0.761	0.393	0.62	0.693
G fixed	3.27	0.888	1.21	1.37	0.819	0.746	0.848	1.45	1.25
H fixed	0.811	1.84	1.2	1.03	1.02	2.91	0.985	1.1	1.32
I fixed	0.715	0.499	0.602	0.728	0.454	0.427	0.249	0.628	0.533
K fixed	0.959	1.23	1.24	1.09	1.78	1.14	1.64	1.24	1.72
L fixed	0.571	0.624	0.587	0.823	0.693	0.473	0.309	0.567	0.52
M fixed	0.84	0.648	0.733	0.827	0.713	0.566	0.403	0.992	0.539
N fixed	1.21	1.57	1.24	1.16	1.46	1.23	0.74	0.975	0.869
P fixed	0.416	1.11	0.828	1.47	2.12	1.1	1.33	1.42	1
Q fixed	1.33	1.16	1.19	1.14	1.46	1.07	0.856	1.08	0.926
R fixed	0.955	1.44	1.53	0.79	1	2.1	5.83	1.57	2.42
V fixed	0.828	0.7	0.69	0.859	0.697	0.456	0.372	0.657	0.714
W fixed	0.553	0.981	0.931	0.934	0.529	0.905	0.575	0.775	0.961
Y fixed	0.634	0.824	0.87	0.795	0.926	1.19	0.409	0.744	0.688
pThr fixed	1.27	1.04	1.04	1.68	0.585	0.694	0.78	0.779	0.67
pTyr fixed	0.783	0.886	1.11	1.02	1.21	0.975	0.904	1.03	1.03

MYLK2, construct: Full length (from UniProt Q9H1R3)
relative phosphorylation
Settings	at +1	at +2	at +3	at +4	at -1	at -2	at -3	at -4	at -5
A fixed	1.17	0.898	0.72	1.02	1	1.55	0.879	1.34	1.37
D fixed	0.541	0.852	1.08	1.07	0.654	0.423	0.467	0.847	0.683
E fixed	0.705	1.5	0.72	1.38	0.659	0.454	0.605	1.03	0.644
F fixed	0.621	1.42	1.62	0.804	0.486	0.461	0.464	0.852	0.932
G fixed	1.19	0.696	1.03	0.936	0.922	1.37	1.45	1.46	1.5
H fixed	0.988	1.02	0.825	0.938	1.49	1.08	1.02	0.942	1.1
I fixed	0.784	1.28	1.37	1.36	0.556	0.471	0.412	0.639	0.657
K fixed	1.5	0.664	0.482	0.898	1.89	1.44	2.17	1.03	1.19
L fixed	0.785	1.15	2.01	1.17	0.885	0.461	0.421	0.702	0.723
M fixed	1.27	1.06	1.13	0.925	0.891	0.512	0.474	0.836	0.739
N fixed	0.945	0.783	0.84	0.736	1.41	0.819	0.85	0.894	0.884
P fixed	0.323	0.785	0.8	1.36	1.37	1	1.35	1.53	1.62
Q fixed	1.81	0.757	0.557	0.973	1.35	0.806	0.894	1.01	0.834
R fixed	1.68	0.575	0.525	0.58	1.13	4.52	3.77	1.28	0.929
V fixed	1.07	1.21	0.919	1.23	0.688	0.558	0.477	0.753	0.853
W fixed	0.902	1.31	1.6	0.903	0.658	0.527	0.691	1.01	1.25
Y fixed	0.721	1.04	0.78	0.715	0.958	0.529	0.6	0.843	1.08
pThr fixed	1.71	1.59	0.794	1.43	0.612	0.958	0.847	1.05	1.06
pTyr fixed	0.726	1.47	0.977	1.37	0.886	0.674	0.819	0.934	0.84
